Experimental data taken from patent US20030232051A1.

Legend:
Assay in all cases: cell-based or functional assay
[1] = molecular target: 2B4 (CD244) (on human NK cells) (human) (UniProt Q9BZW8)
[2] = molecular target: CD16 (on human NK cells) (human) (UniProt P08637)
[3] = molecular target: HA-2DL4 (RY-GT) mutant (human) (UniProt Q99706)
[4] = molecular target: HA-2DL4 (epitope-tagged 2DL4) (human) (UniProt Q99706)
Chain of HA-2DL4 (epitope-tagged 2DL4) (human) (Q99706 24-377): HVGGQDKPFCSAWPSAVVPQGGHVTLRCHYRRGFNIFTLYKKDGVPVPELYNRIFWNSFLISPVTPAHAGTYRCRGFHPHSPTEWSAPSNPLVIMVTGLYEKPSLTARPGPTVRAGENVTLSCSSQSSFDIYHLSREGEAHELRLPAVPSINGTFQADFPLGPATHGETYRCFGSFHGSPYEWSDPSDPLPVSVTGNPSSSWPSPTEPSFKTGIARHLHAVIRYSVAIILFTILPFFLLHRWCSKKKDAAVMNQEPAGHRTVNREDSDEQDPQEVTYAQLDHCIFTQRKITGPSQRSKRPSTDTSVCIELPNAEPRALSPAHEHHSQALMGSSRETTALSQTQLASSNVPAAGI

Chain of CD16 (on human NK cells) (human) (P08637 17-254): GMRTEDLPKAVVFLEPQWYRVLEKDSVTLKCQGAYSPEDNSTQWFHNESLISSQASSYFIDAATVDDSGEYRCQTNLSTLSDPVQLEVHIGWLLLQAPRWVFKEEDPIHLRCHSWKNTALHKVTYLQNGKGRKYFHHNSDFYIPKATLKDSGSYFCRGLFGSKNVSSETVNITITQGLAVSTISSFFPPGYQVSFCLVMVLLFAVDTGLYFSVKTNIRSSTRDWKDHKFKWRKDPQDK
Chain of 2B4 (CD244) (on human NK cells) (human) (Q9BZW8 22-370): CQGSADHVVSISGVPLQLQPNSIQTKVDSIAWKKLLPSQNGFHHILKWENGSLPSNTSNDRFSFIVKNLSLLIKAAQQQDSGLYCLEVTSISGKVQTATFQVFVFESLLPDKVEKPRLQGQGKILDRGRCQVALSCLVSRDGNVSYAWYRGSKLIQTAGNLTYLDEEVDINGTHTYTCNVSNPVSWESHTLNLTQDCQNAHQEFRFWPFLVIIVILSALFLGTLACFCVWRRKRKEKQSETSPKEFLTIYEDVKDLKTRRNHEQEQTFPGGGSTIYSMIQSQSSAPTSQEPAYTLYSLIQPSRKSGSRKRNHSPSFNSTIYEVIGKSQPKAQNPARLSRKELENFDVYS
Chain of HA-2DL4 (RY-GT) mutant (human) (Q99706 24-377, change not shown): as the sequence (Q99706 24-377) above

Substance: anti-2B4 mAb C1.7 (IgG1; Beckman Coulter) (antibody)
- increase in IFN-gamma release by IL-2-activated NK cells with P815 cells over that induced by control IgG (fold over control IgG) [1]: 1.55
- increase in IFN-gamma release by resting NK cells with P815 cells over control IgG (fold over control IgG) [1]: 2.1
- ratio of lysis of P815 cells by IL-2-activated NK cells over that obtained with control Ig (fold over control Ig) [1]: 3.3
- ratio of lysis of P815 cells by resting NK cells over that obtained with control Ig (fold over control Ig) [1]: 3.1

Substance: anti-CD16 mAb 3G8 (IgG1; Medarex) (antibody)
- increase in IFN-gamma release by IL-2-activated NK cells with P815 cells over that induced by control IgG (fold over control IgG) [2]: 20.1
- increase in IFN-gamma release by resting NK cells with P815 cells over control IgG (fold over control IgG) [2]: 4.2
- ratio of lysis of P815 cells by IL-2-activated NK cells over that obtained with control Ig (fold over control Ig) [2]: 4.8
- ratio of lysis of P815 cells by resting NK cells over that obtained with control Ig (fold over control Ig) [2]: 4.9

Substance: anti-HA mAb 16B12 (IgG1; Covance) (antibody)
- fold activation of lysis of P815 cells by vaccinia-infected IL-2-activated NK cells (fold over control Ig) [3]: 0.56
- fold activation of lysis of P815 cells by vaccinia-infected IL-2-activated NK cells (fold over control Ig) [4]: 2.9
